Measurements published in article PMC314469, “Protein Interaction Networks by Proteome Peptide Scanning” (PLoS Biology, 2004).

T1: Abp1 SH3 (ABP1_YEAST), P15891
T1 chain: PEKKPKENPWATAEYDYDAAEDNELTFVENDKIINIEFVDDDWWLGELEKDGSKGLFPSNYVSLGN


Target: T1, Abp1 SH3 (ABP1_YEAST), P15891
Assay: SPOT array

Going from SVQNAKFPRASKP [YPL160W 891-903] to SYILEELPIHLRP [YPL110C 407-419], the normalised SPOT signal, Boehringer light units (BLU); mean over the file's lines of this peptide falls from 240 to 140.

Going from TSPHTENFQIPSKP [YBR058C 192-205] to TSGPHGSPDFFKP [YBR208C 1266-1278], the normalised SPOT signal, Boehringer light units (BLU); mean over the file's lines of this peptide falls from 66.6 to 64.2.

Compared with TDGNEEKPLLPTRP [YPR171W 199-212], TKFDDEPPLADKP [YML109W 280-292] is higher in normalised SPOT signal, Boehringer light units (BLU); mean over the file's lines of this peptide: 65.4 for the first, 133 for the second.

Going from THTNLAPPPTMKP [YHR102W 753-765] to STKPEKPPVVKKP [YNL106C 1109-1121], the normalised SPOT signal, Boehringer light units (BLU); mean over the file's lines of this peptide rises from 136 to 13300.

First: TDMVLIPAGVPRKP [YKL085W 88-101]
Second: SSYAHKRSELPTRP [YNL139C 1440-1453]
The normalised SPOT signal, Boehringer light units (BLU); mean over the file's lines of this peptide of the first is lower: 122 for the first, 201 for the second.

Going from TKKAKIIFTAPTRP [YIR002C 128-141] to TAIRTVMPNLLKP [YOR118W 248-260], the normalised SPOT signal, Boehringer light units (BLU); mean over the file's lines of this peptide rises from 87.4 to 109.

First: SVASLKRVIVPDKP [YNL020C 51-64]
Second: STMVTYLPPSSKP [YKL020C 555-567]
The normalised SPOT signal, Boehringer light units (BLU); mean over the file's lines of this peptide of the first is higher: 388 for the first, 136 for the second.

Compared with TIWNTIIKFDPGRP [YKL178C 248-261], SSVSAHQPTQEKP [YGL008C 14-26] is lower in normalised SPOT signal, Boehringer light units (BLU); mean over the file's lines of this peptide: 180 for the first, 161 for the second.

Going from TSLSIVRPNDSKP [YMR185W 853-865] to TGVSIKNPRPSRP [YPR096C 5-17], the normalised SPOT signal, Boehringer light units (BLU); mean over the file's lines of this peptide rises from 54.1 to 1030.

Compared with TEEEIKYLEEPYKP [YPL088W 324-337], TKLSTHKASSPSRP [YHR102W 715-728] is higher in normalised SPOT signal, Boehringer light units (BLU); mean over the file's lines of this peptide: 102 for the first, 170 for the second.

Compared with STIPDNHPVLNKP [YAL043C 192-204], TFTGLIGMNDPPRP [YGL167C 571-584] is lower in normalised SPOT signal, Boehringer light units (BLU); mean over the file's lines of this peptide: 117 for the first, 83.7 for the second.

First: TIADTLQPGLPHKP [YJL045W 457-470]
Second: SYPSAIQNVQPRKP [YFR022W 627-640]
The normalised SPOT signal, Boehringer light units (BLU); mean over the file's lines of this peptide of the first is higher: 127 for the first, 105 for the second.

First: SSSSSILPSTPTRP [YPL202C 310-323]
Second: TFEEFQSPIYRKP [YIL110W 72-84]
The normalised SPOT signal, Boehringer light units (BLU); mean over the file's lines of this peptide of the first is lower: 70.9 for the first, 98.3 for the second.

Going from TDSGRNGPRSGKP [YNL251C 479-491] to THALGAAIDPPRRP [YCL048W 21-34], the normalised SPOT signal, Boehringer light units (BLU); mean over the file's lines of this peptide rises from 36.5 to 53.7.

First: TKSNGKDKSRPPRP [YIL095W 739-752]
Second: SVLAPYLPFLMKP [YHR099W 870-882]
The normalised SPOT signal, Boehringer light units (BLU); mean over the file's lines of this peptide of the first is higher: 141 for the first, 8.6 for the second.

Compared with SVRVQGEPLDPKRP [YGL027C 137-150], TDELSKFPFIDKP [YKR086W 737-749] is lower in normalised SPOT signal, Boehringer light units (BLU); mean over the file's lines of this peptide: 80 for the first, 42.7 for the second.

First: SSSSSPLENTPPRP [YML027W 280-293]
Second: SSSRSVVPILPKP [YER040W 495-507]
The normalised SPOT signal, Boehringer light units (BLU); mean over the file's lines of this peptide of the first is lower: 159 for the first, 329 for the second.

Compared with TDVTFSYPGAQKP [YPL226W 815-827], SSTKVPEPPSWKP [YIL156W 492-504] is lower in normalised SPOT signal, Boehringer light units (BLU); mean over the file's lines of this peptide: 108 for the first, 34.3 for the second.

Compared with SSTLKSNSSLPPKP [YGR178C 412-425], STRAKGIAFHPSRP [YDL145C 11-24] is higher in normalised SPOT signal, Boehringer light units (BLU); mean over the file's lines of this peptide: 69 for the first, 119 for the second.

First: SYPGSTRITLPRRP [YBR122C 34-47]
Second: STKKPRPPVKSKP [YOR367W 152-164]
The normalised SPOT signal, Boehringer light units (BLU); mean over the file's lines of this peptide of the first is lower: 568 for the first, 67200 for the second.

Going from TIKRKRAYSLPLRP [YKR098C 130-143] to SVYSNYLPKGNRP [YMR167W 278-290], the normalised SPOT signal, Boehringer light units (BLU); mean over the file's lines of this peptide rises from 133 to 216.

Compared with STFLYRFPINGRP [YER019W 144-156], TDIHKEDPVDKKP [YML061C 94-106] is higher in normalised SPOT signal, Boehringer light units (BLU); mean over the file's lines of this peptide: 89.3 for the first, 200 for the second.

Going from TKAKKEKPKPPKP [YMR044W 280-292] to TKSEYTNAELPAKP [YMR011W 36-49], the normalised SPOT signal, Boehringer light units (BLU); mean over the file's lines of this peptide falls from 1330 to 67.7.

Going from TEKHELIIPTPSKP [YCL027W 383-396] to TFDVPASPQSKKP [YOL153C 56-68], the normalised SPOT signal, Boehringer light units (BLU); mean over the file's lines of this peptide rises from 57 to 113.

Compared with STSFSPSPLIRRP [YKL108W 250-262], STGGVKKPHRYKP [YBR010W 32-44] is lower in normalised SPOT signal, Boehringer light units (BLU); mean over the file's lines of this peptide: 550 for the first, 130 for the second.

First: STSSENRLRTPLKP [YGL021W 216-229]
Second: SSTIKRYPSRYKP [YFR019W 125-137]
The normalised SPOT signal, Boehringer light units (BLU); mean over the file's lines of this peptide of the first is lower: 76.6 for the first, 238 for the second.

First: SVQQSQILIQPERP [YCR033W 957-970]
Second: TAGHKLSVRVPTKP [YDL227C 82-95]
The normalised SPOT signal, Boehringer light units (BLU); mean over the file's lines of this peptide of the first is lower: 73 for the first, 638 for the second.

Compared with STFSDHEPQHTKP [YBL054W 203-215], SVVISKNPDFFKP [YOR160W 317-329] is lower in normalised SPOT signal, Boehringer light units (BLU); mean over the file's lines of this peptide: 96.8 for the first, 62.4 for the second.

First: SYNINSDPVITRP [YPR022C 958-970]
Second: STRLTLTKWDPSKP [YKL027W 380-393]
The normalised SPOT signal, Boehringer light units (BLU); mean over the file's lines of this peptide of the first is lower: 90.3 for the first, 209 for the second.
